The source of these data is paper PMC7078158, “Enzymes Catalyzing Crotonyl-CoA Conversion to Acetoacetyl-CoA During the Autotrophic CO2 Fixation in Metallosphaera sedula” (Frontiers in Microbiology, 2020).

By Km is commonly meant the concentration of substrate that gives half-maximal velocity.

Format in all cases: biochemical, Metallosphaera sedula
Substrate in data set [1]: CCCCC/C=C/C(=O)SCCNC(=O)CCNC(=O)[C@H](O)C(C)(C)COP(=O)(O)OP(=O)(O)OC[C@H]1O[C@@H](n2cnc3c(N)ncnc32)[C@H](O)[C@@H]1OP(=O)(O)O
Briefly: UHPLC, 3-hydroxyoctanoyl-CoA formation. The conditions noted are these: hydratase reaction, 65 °C, apparent Km, buffer in general 100 mM Tris-HCl pH 7.8. The text has this:
UHPLC, 3-hydroxyoctanoyl-CoA formation on crotonyl-CoA hydratase/(S)-3-hydroxybutyryl-CoA dehydrogenase Msed_0399

Substrate in data set [2]: C/C=C/C(=O)SCCNC(=O)CCNC(=O)[C@H](O)C(C)(C)COP(=O)(O)OP(=O)(O)OC[C@H]1O[C@@H](n2cnc3c(N)ncnc32)[C@H](O)[C@@H]1OP(=O)(O)O
Briefly: UHPLC, 3-hydroxybutyryl-CoA formation. The conditions noted are these: hydratase reaction, 100 mM Tris-HCl pH 9, 65 °C, apparent Km. The text has this:
UHPLC, 3-hydroxybutyryl-CoA formation on crotonyl-CoA hydratase/(S)-3-hydroxybutyryl-CoA dehydrogenase Msed_0399

Substrate in data set [3]: CC(C)(COP(=O)(O)OP(=O)(O)OC[C@H]1O[C@@H](n2cnc3c(N)ncnc32)[C@H](O)[C@@H]1OP(=O)(O)O)[C@@H](O)C(=O)NCCC(=O)NCCSC(=O)CCO
Briefly: Ccr-coupled assay, acryloyl-CoA formation, UHPLC. Conditions: dehydratase reaction, 100 mM MOPS/KOH pH 7.0, 42 °C, 1 mM NADPH and NaHCO3 for coupling enzyme, apparent Km. The text has this: Ccr-coupled assay, acryloyl-CoA formation, UHPLC on crotonyl-CoA hydratase/(S)-3-hydroxybutyryl-CoA dehydrogenase Msed_0399

Substrate in data set [4]: C[C@H](O)CC(=O)SCCNC(=O)CCNC(=O)[C@H](O)C(C)(C)COP(=O)(O)OP(=O)(O)OC[C@H]1O[C@@H](n2cnc3c(N)ncnc32)[C@H](O)[C@@H]1OP(=O)(O)O
The data set is described as follows: (S)-3-hydroxybutyryl-CoA dehydrogenase assay with NAD. Conditions: dehydrogenase reaction with NAD, 65 °C, apparent Km. From the text:
(S)-3-hydroxybutyryl-CoA dehydrogenase assay with NAD on crotonyl-CoA hydratase/(S)-3-hydroxybutyryl-CoA dehydrogenase Msed_0399

Substrate in data set [5]: C[C@H](O)CC(=O)SCCNC(=O)CCNC(=O)[C@H](O)C(C)(C)COP(=O)(O)OP(=O)(O)OC[C@H]1O[C@@H](n2cnc3c(N)ncnc32)[C@H](O)[C@@H]1OP(=O)(O)O
Briefly: (S)-3-hydroxybutyryl-CoA dehydrogenase assay. Conditions: 0.5 mM NAD, 65 °C, apparent Km. The text has this:
(§1) (S)-3-hydroxybutyryl-CoA dehydrogenase assay on (S)-3-hydroxybutyryl-CoA dehydrogenase Msed_0389

Substrate in data set [6]: NC(=O)c1ccc[n+]([C@@H]2O[C@H](COP(=O)(O)OP(=O)(O)OC[C@H]3O[C@@H](n4cnc5c(N)ncnc54)[C@H](O)[C@@H]3O)[C@@H](O)[C@H]2O)c1
The data set is described as follows: (S)-3-hydroxybutyryl-CoA dehydrogenase assay. Conditions: with (S)-3-hydroxybutyryl-CoA, 65 °C, apparent Km, varied: cofactor.
From the text: as §1

Substrate in data set [7]: NC(=O)c1ccc[n+]([C@@H]2O[C@H](COP(=O)(O)OP(=O)(O)OC[C@H]3O[C@@H](n4cnc5c(N)ncnc54)[C@H](OP(=O)(O)O)[C@@H]3O)[C@@H](O)[C@H]2O)c1
Briefly: (S)-3-hydroxybutyryl-CoA dehydrogenase assay. The conditions noted are these: with (S)-3-hydroxybutyryl-CoA, 65 °C, apparent Km, varied: cofactor.
From the text: as §1

Substrate in data set [8]: C[C@H](O)CC(=O)SCCNC(=O)CCNC(=O)[C@H](O)C(C)(C)COP(=O)(O)OP(=O)(O)OC[C@H]1O[C@@H](n2cnc3c(N)ncnc32)[C@H](O)[C@@H]1OP(=O)(O)O
Briefly: (S)-3-hydroxybutyryl-CoA dehydrogenase assay. The conditions noted are these: 0.5 mM NAD, 65 °C, apparent Km. The text has this: (§2) (S)-3-hydroxybutyryl-CoA dehydrogenase assay on (S)-3-hydroxybutyryl-CoA dehydrogenase Msed_1423
The source holds these as a separate data set.

Substrate in data set [9]: NC(=O)c1ccc[n+]([C@@H]2O[C@H](COP(=O)(O)OP(=O)(O)OC[C@H]3O[C@@H](n4cnc5c(N)ncnc54)[C@H](O)[C@@H]3O)[C@@H](O)[C@H]2O)c1
Briefly: (S)-3-hydroxybutyryl-CoA dehydrogenase assay. Conditions: with (S)-3-hydroxybutyryl-CoA, 65 °C, apparent Km, varied: cofactor.
From the text: as §2
This is another data set of the same source.

Substrate in data set [10]: NC(=O)c1ccc[n+]([C@@H]2O[C@H](COP(=O)(O)OP(=O)(O)OC[C@H]3O[C@@H](n4cnc5c(N)ncnc54)[C@H](OP(=O)(O)O)[C@@H]3O)[C@@H](O)[C@H]2O)c1
The data set is described as follows: (S)-3-hydroxybutyryl-CoA dehydrogenase assay. Conditions: with (S)-3-hydroxybutyryl-CoA, 65 °C, apparent Km, varied: cofactor.
From the text: as §2
The source holds these as a separate data set.

B1: crotonyl-CoA hydratase/(S)-3-hydroxybutyryl-CoA dehydrogenase Msed_0399 (Metallosphaera sedula DSM 5348) (protein)
chain: MKVTVIGSGVMGHGIAELAAIAGNEVWMNDISTEILQQAMERIKWSLSKLRESGSLKEGVEQVLARIHPETDQAQALKGSDFVIEAVKEDLELKRTIFRNAEAHASPSAVLATNTSSLPISEIASVLKSPQRVVGMHFFNPPVLMPLVEIVRGKDTSDEVVKTTAEMAKSMNKETIVVKDVPGFFVNRVLLRIMEAGCYLVEKGIASIQEVDSSAIEELGFPMGVFLLADYTGLDIGYSVWKAVTARGFKAFPCSSTEKLVSQGKLGVKSGSGYYQYPSPGKFVRPTLPSTSKKLGRYLISPAVNEVSYLLREGIVGKDDAEKGCVLGLGLPKGILSYADEIGIDVVVNTLEEMRQTSGMDHYSPDPLLLSMVKEGKLGRKSGQGFHTYAHEEAKYSTIVVRVEPPLAWIVLNRPTRYNAINGDMIREINQALDSLEEREDVRVIAITGQGRVFSAGADVTEFGSLTPVKAMIASRKFHEVFMKIQFLTKPVIAVINGLALGGGMELALSADFRVASKTAEMGQPEINLGLIPGGGGTQRLSRLSGRKGLELVLTGRRVKAEEAYRLGIVEFLAEPEELESEVRKLANAIAEKSPLAVASAKLAYKLGEETHIWTGTSLEASLFGLLFSTKDFEEGVRAFLEKRKPNFRGE
notes: full-length, untagged, recombinant in E. coli Rosetta 2 (DE3); N-terminal dehydrogenase domain (~40 kDa), C-terminal enoyl-CoA hydratase domain (~20 kDa)
Take B1: the Km is 80 ± 10 µM in data set [1], 970 ± 70 µM in data set [2], 60 ± 20 µM in data set [3] and 120 ± 10 µM in data set [4].

B2: (S)-3-hydroxybutyryl-CoA dehydrogenase Msed_0389 (Metallosphaera sedula DSM 5348) (protein)
chain: MKVFVIGSGVMGSGIGQVFAMAGHEVTLYDVKEEALKKAMEGIRWSLQKLQEKGSVKDVESVLSRIFTSRDLSEARDHLVIEAVFEDIKVKSDVLGRVSPLTDEIIASNTSSLPITELSRAVRNPERFLGMHFFNPPVLMKLVEVIRGDNTSEERFREALDIVKSLGKYPLPVRKDVFGFVVNRILFRLFTSACALLTQYTPHEIDYVAIKELGMPMGLIMLLDYTGLDVNYDISKEAERRGFPFKCDVLEGMVKSGKLGRKSGQGFYDWSKGKPEVKATSGPDPRELLRGAVEEAKWLISQGVVTREELETGLKLGLGMSRGILELGEILGVH
notes: full-length, N-terminal His10-tag (pET16b), recombinant in E. coli Rosetta 2 (DE3)
Consider B2, for which the Km is 2.6 ± 1 µM in data set [5], 12 ± 2 µM in [6] and 1500 ± 300 µM in data set [7].

B3: (S)-3-hydroxybutyryl-CoA dehydrogenase Msed_1423 (Metallosphaera sedula DSM 5348) (protein)
chain: MRIAVVGSGTMGHGIAEVAAMAGMEVKLIDISWDILNRAKERMYDSLKRLHERGTIRETPDTVMSRIEISVSYDVAKDVDFAIEAVPEILELKRKVFQELDRVVPKESILATNTSSIPISDIGEITSRKEKVIGMHFFNPPPLMKLVEVIPSKYTSEDVTRYTVELAKKMGKTPVRLRVEVPGFVSNRIFLRLLQEACREVESGEATIEEVDSSARNKLKLPMGIFELADYVGLDVAVDLWKVIVERGASDVKCSSYKERVDRKELGVKTGKGFYTYPAPGKYSKVSLPPESKVPPERIISLAVNEGAWLIENNIVNAEEIDTVMRLGFNFPKGLLEMADELGLDKILNALREIHSRGYEAYSPNPLLVKMVSQGQTGKSSGRGFYTYGKT
notes: as for B2
In the case of B3, the Michaelis-Menten constant (Km) in [8] came out at 5 ± 2 µM; in data set [9], 30 ± 3 µM; in [10] it was 5100 ± 500 µM.
